Test results from US20120058906A1.

B1: Fab VH5-51_IGHD5-18*01>3_IGHJ4*01_G100K_G104T & V3-4_IGLJ1*01 (Fab, V domains shown)
VH: EVQLVQSGAEVKKPGESLKISCKGSGYSFTSYWIGWVRQMPGKGLEWMGIIYPGDSDTRYSPSFQGQVTISADKSISTAYLQWSSLKASDTAMYYCARRKYSYTYDYFDYWGQGTLVTVSS
VL: QTVVTQEPSFSVSPGGTVTLTCGLSSGSVSTSYYPSWYQQTPGQAPRTLIYSTNTRSSGVPDRFSGSILGNKAALTITGAQADDESDYYCVLYMGSGISYVFGTGTKVTVL
B2: Fab VH1-46_IGHD3-10*01_IGHJ4*01 & O1_IGKJ1*01 (Fab, V domains shown)
VH: QVQLVQSGAEVKKPGASVKVSCKASGYTFTSYYMHWVRQAPGQGLEWMGIINPSGGSTSYAQKFQGRVTMTRDTSTSTVYMELSSLRSEDTAVYYCAREYYYGSGSYYNDYFDYWGQGTLVTVSS
VL: DIVMTQTPLSLPVTPGEPASISCRSSQSLLDSDDGNTYLDWYLQKPGQSPQLLIYTLSYRASGVPDRFSGSGSGTDFTLKISRVEAEDVGVYYCMQRIEFPSWTFGQGTKVEIK

Columns and labels:
[1] = target: rHuman EGF R/Fc Chimera, CF (R&D Systems Cat#344-ER) (human) (UniProt P00533); assay: ECL (MSD Multi-Spot) binding, antigen spotted on plate; Fab 500 nM
[2] = target: rHuman HGF R/c-MET/Fc Chimera, CF (R&D Systems Cat#358-MT/CF) (human) (UniProt P08581); assay: as above
[3] = target: rHuman ErbB2/Fc Chimera, CF (R&D Systems Cat#1129-ER) (human) (UniProt P04626); assay: as above
[4] = target: rHuman EGF R/Fc Chimera, CF (R&D Systems Cat#344-ER) (human) (UniProt P00533); assay: ECL (MSD Multi-Spot) binding, antigen spotted on plate; Fab 25 nM
[5] = target: rHuman HGF R/c-MET/Fc Chimera, CF (R&D Systems Cat#358-MT/CF) (human) (UniProt P08581); assay: as above
[6] = target: rHuman ErbB2/Fc Chimera, CF (R&D Systems Cat#1129-ER) (human) (UniProt P04626); assay: as above
[7] = target: rHuman EGF R/Fc Chimera, CF (R&D Systems Cat#344-ER) (human) (UniProt P00533); assay: ECL (MSD Multi-Spot) binding, antigen spotted on plate; Fab 1.25 nM
[8] = target: rHuman HGF R/c-MET/Fc Chimera, CF (R&D Systems Cat#358-MT/CF) (human) (UniProt P08581); assay: as above
[9] = target: rHuman ErbB2/Fc Chimera, CF (R&D Systems Cat#1129-ER) (human) (UniProt P04626); assay: as above
[10] = target: rHuman EGF R/Fc Chimera, CF (R&D Systems Cat#344-ER) (human) (UniProt P00533); assay: ECL (MSD Multi-Spot) binding, antigen spotted on plate; Fab 0.0625 nM
[11] = target: rHuman HGF R/c-MET/Fc Chimera, CF (R&D Systems Cat#358-MT/CF) (human) (UniProt P08581); assay: as above
[12] = target: rHuman ErbB2/Fc Chimera, CF (R&D Systems Cat#1129-ER) (human) (UniProt P04626); assay: as above
[13] = target: rHuman P-Cadherin/Fc Chimera, CF (R&D Systems Cat#861-PC) (human) (UniProt P22223); assay: MSD ECL multi-spot assay, antigen spotted on plate, Fab 1.57 uM; blank spot 797

Binder	ECL signal [1]	ECL signal [2]	ECL signal [3]	ECL signal [4]	ECL signal [5]	ECL signal [6]	ECL signal [7]	ECL signal [8]	ECL signal [9]	ECL signal [10]	ECL signal [11]	ECL signal [12]	ECL signal [13]
B1	1110	1300	957	821	805	927	729	774	695	736	643	692	
B2													2030
